# According to patent publication US20250376532A1:
# Target: rDR5-IgG4-Fc (UniProt O14763)
# Experiment: BLI
substance,measurement,value
AMG655,Kd,0.102 nM
